{"source": "the RNAGym collection of RNA variant scans (doi:10.1073/pnas.2313332121)", "parents": {"B1": {"name": "TPR 5TU (parent)", "chain": "GGAUCUUCUCGAUCUAACAAAAAAGACAAAUCUGCCACAAAGCUUGAGAGCAUCUUCGGAUGCAGAGGCGGCAGCCUUCGGUGGCGCGAUAGCGCCAACGUUCUCAACUAUGACACGCAAAACGCGUGCUCCGUUGAAUGGAGUUUAUCAUG"}}, "note": "Fewer inactive variants are shown than the library holds.", "data": [{"variants_of": "B1", "experiment": "polymerase ribozyme fitness, log enrichment relative to wild type (log ratio); higher = more active; in vitro selection for triplet polymerase activity", "in_short": "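Mutant libraries of each subunit of a heterodimeric triplet polymerase ribozyme were built by PCR and transcribed. Each library went through one round of in vitro selection in triplicate: annealing with biotinylated primer, partner subunit and triplets, frozen incubation at −7 °C, gel excision of extended constructs, streptavidin-bead capture and RT-PCR. Input and output libraries were Illumina-sequenced; only genotypes with ≥10 input reads and ≥1 read per output were kept. Fitness is log2(genotype enrichment/wild-type enrichment), using inverse-variance-weighted replicate averages.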", "values": [{"variant": "A122C C125A", "polymerase ribozyme fitness (log ratio)": -0.874}, {"variant": "A107G", "polymerase ribozyme fitness (log ratio)": -2.92}, {"variant": "A107C", "polymerase ribozyme fitness (log ratio)": -3.58}, {"variant": "A107U", "polymerase ribozyme fitness (log ratio)": -3.06}, {"variant": "A137G G143C", "polymerase ribozyme fitness (log ratio)": -3.85}, {"variant": "G140U G143A", "polymerase ribozyme fitness (log ratio)": "≤ -4.2"}, {"variant": "A137C C149U", "polymerase ribozyme fitness (log ratio)": -3.9}, {"variant": "G141A G143C", "polymerase ribozyme fitness (log ratio)": -3.92}, {"variant": "A119G A120U", "polymerase ribozyme fitness (log ratio)": 0.0433}, {"variant": "C116G G143A", "polymerase ribozyme fitness (log ratio)": -2.16}, {"variant": "C114G G143A", "polymerase ribozyme fitness (log ratio)": "≤ -4.2"}, {"variant": "G133U U144A", "polymerase ribozyme fitness (log ratio)": -3.29}, {"variant": "A115G C129G", "polymerase ribozyme fitness (log ratio)": -3.64}, {"variant": "G140C U148G", "polymerase ribozyme fitness (log ratio)": -4.14}, {"variant": "U144A A150U", "polymerase ribozyme fitness (log ratio)": -1.5}, {"variant": "A115G G140U", "polymerase ribozyme fitness (log ratio)": -3.41}, {"variant": "G124U G141U", "polymerase ribozyme fitness (log ratio)": 0.513}, {"variant": "U134G U148A", "polymerase ribozyme fitness (log ratio)": -3.87}, {"variant": "C108G U144C", "polymerase ribozyme fitness (log ratio)": -4.13}, {"variant": "G117A G141C", "polymerase ribozyme fitness (log ratio)": -3.29}, {"variant": "G117A A150C", "polymerase ribozyme fitness (log ratio)": -3.86}, {"variant": "U127G", "polymerase ribozyme fitness (log ratio)": -3.06}, {"variant": "U127C", "polymerase ribozyme fitness (log ratio)": -1.3}, {"variant": "U127A", "polymerase ribozyme fitness (log ratio)": -2.94}, {"variant": "U134G U144G", "polymerase ribozyme fitness (log ratio)": -1.51}, {"variant": "G136C U145A C149G", "polymerase ribozyme fitness (log ratio)": "≤ -4.2"}, {"variant": "C116A U139A U148A", "polymerase ribozyme fitness (log ratio)": -4.12}, {"variant": "U130C A138G", "polymerase ribozyme fitness (log ratio)": -3.28}, {"variant": "A113G C118G", "polymerase ribozyme fitness (log ratio)": -1.86}, {"variant": "A107G U144G", "polymerase ribozyme fitness (log ratio)": -3.59}, {"variant": "A119G G128C", "polymerase ribozyme fitness (log ratio)": -1.98}, {"variant": "C114U A142G", "polymerase ribozyme fitness (log ratio)": -2.95}, {"variant": "C116A C123U C125U", "polymerase ribozyme fitness (log ratio)": -3.41}, {"variant": "G126A A150C", "polymerase ribozyme fitness (log ratio)": -4.16}, {"variant": "G117C A137G", "polymerase ribozyme fitness (log ratio)": -0.587}, {"variant": "C132G G141C", "polymerase ribozyme fitness (log ratio)": -3.73}, {"variant": "U135A U148G", "polymerase ribozyme fitness (log ratio)": -3.41}, {"variant": "U109C C116U C131U A147U", "polymerase ribozyme fitness (log ratio)": -1.68}, {"variant": "A121C U139G G140A U144G", "polymerase ribozyme fitness (log ratio)": -4.07}, {"variant": "C114G G141C U148A", "polymerase ribozyme fitness (log ratio)": "≤ -4.2"}, {"variant": "A115U G141U", "polymerase ribozyme fitness (log ratio)": -1.29}, {"variant": "A121U C131U U134A", "polymerase ribozyme fitness (log ratio)": -2.42}, {"variant": "A107G C125A", "polymerase ribozyme fitness (log ratio)": -3.63}, {"variant": "A113G A122U G136A U148A", "polymerase ribozyme fitness (log ratio)": -3.76}, {"variant": "A119U G124U U146A", "polymerase ribozyme fitness (log ratio)": -0.483}, {"variant": "G126A G140U", "polymerase ribozyme fitness (log ratio)": -3.43}, {"variant": "C108U G141U", "polymerase ribozyme fitness (log ratio)": -3.1}, {"variant": "U135A C149G", "polymerase ribozyme fitness (log ratio)": -4.09}, {"variant": "U134A G141C", "polymerase ribozyme fitness (log ratio)": -3.42}, {"variant": "C114G G140U", "polymerase ribozyme fitness (log ratio)": -3.9}, {"variant": "A106G U109C", "polymerase ribozyme fitness (log ratio)": -3.91}, {"variant": "C125G U145G", "polymerase ribozyme fitness (log ratio)": -2.69}, {"variant": "A150G G152U", "polymerase ribozyme fitness (log ratio)": -3.43}, {"variant": "A110U A142U A150U", "polymerase ribozyme fitness (log ratio)": "≤ -4.2"}, {"variant": "A119C G133C", "polymerase ribozyme fitness (log ratio)": -1.83}, {"variant": "C129A G133C", "polymerase ribozyme fitness (log ratio)": -3.55}, {"variant": "G140A U146G", "polymerase ribozyme fitness (log ratio)": -3.51}, {"variant": "U145C", "polymerase ribozyme fitness (log ratio)": 0.096}, {"variant": "U145G", "polymerase ribozyme fitness (log ratio)": -0.131}, {"variant": "U145A", "polymerase ribozyme fitness (log ratio)": 0.192}, {"variant": "G124A G133U U135C", "polymerase ribozyme fitness (log ratio)": -3.82}, {"variant": "C116A A142G", "polymerase ribozyme fitness (log ratio)": 0.244}, {"variant": "G126A G133C", "polymerase ribozyme fitness (log ratio)": -0.815}, {"variant": "U109G U151C", "polymerase ribozyme fitness (log ratio)": -3.91}, {"variant": "G133A", "polymerase ribozyme fitness (log ratio)": -3}, {"variant": "G133C", "polymerase ribozyme fitness (log ratio)": -1.65}, {"variant": "G133U", "polymerase ribozyme fitness (log ratio)": -2.62}, {"variant": "C116A G136A", "polymerase ribozyme fitness (log ratio)": 1.97}, {"variant": "A107G G117U", "polymerase ribozyme fitness (log ratio)": -4.04}, {"variant": "A113C C116A", "polymerase ribozyme fitness (log ratio)": "≤ -4.2"}, {"variant": "G126A C149G", "polymerase ribozyme fitness (log ratio)": -3.13}, {"variant": "A115G A122U G124C", "polymerase ribozyme fitness (log ratio)": -1.96}, {"variant": "G126A G141U", "polymerase ribozyme fitness (log ratio)": -2.59}, {"variant": "A113C C118A C125U", "polymerase ribozyme fitness (log ratio)": "≤ -4.2"}, {"variant": "G141U U146G", "polymerase ribozyme fitness (log ratio)": 1.06}, {"variant": "G136A A142C", "polymerase ribozyme fitness (log ratio)": -0.134}, {"variant": "A107C A147U", "polymerase ribozyme fitness (log ratio)": -3.71}, {"variant": "A113C G128A", "polymerase ribozyme fitness (log ratio)": -4.02}, {"variant": "A120G U134G U148G", "polymerase ribozyme fitness (log ratio)": -3.72}, {"variant": "A120G G124A", "polymerase ribozyme fitness (log ratio)": 0.00161}, {"variant": "C118U A147C", "polymerase ribozyme fitness (log ratio)": 0.751}, {"variant": "A110U C123U A142C", "polymerase ribozyme fitness (log ratio)": "≤ -4.2"}, {"variant": "A107U G133C", "polymerase ribozyme fitness (log ratio)": -3.72}, {"variant": "G128U G141A", "polymerase ribozyme fitness (log ratio)": -3.74}, {"variant": "A120G U127C", "polymerase ribozyme fitness (log ratio)": -2.22}, {"variant": "G140C G143U", "polymerase ribozyme fitness (log ratio)": -3.7}, {"variant": "C116A G141A", "polymerase ribozyme fitness (log ratio)": -2.34}, {"variant": "C114U A119U G143A", "polymerase ribozyme fitness (log ratio)": -3.89}, {"variant": "U135G A142C", "polymerase ribozyme fitness (log ratio)": -2.54}, {"variant": "A107C A119G C125A", "polymerase ribozyme fitness (log ratio)": "≤ -4.2"}, {"variant": "C123G G133U", "polymerase ribozyme fitness (log ratio)": -3.68}, {"variant": "A122C C125A G140A G143U", "polymerase ribozyme fitness (log ratio)": "≤ -4.2"}, {"variant": "C123U G141U", "polymerase ribozyme fitness (log ratio)": -0.894}, {"variant": "U130G U135C", "polymerase ribozyme fitness (log ratio)": -4.07}, {"variant": "A121G U148A", "polymerase ribozyme fitness (log ratio)": -3.78}, {"variant": "C108U G117U A120G", "polymerase ribozyme fitness (log ratio)": -3.18}]}]}
